# Laboratory results: patent US20260049138A1 (Chugai, published 2026)
# Molecular target: T1, CD3ε homodimer protein (human, UniProt P07766 23-126, limits assumed, sulfo-tag or biotin label in the ECL assays; amine-coupled to the chip in SPR)
# T1 construct: also called human CD3ε homodimer protein; CD3 (CD3ε)
# Test: SPR Biacore T200; CD3ε homodimer on CM4 chip;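 note: Single-residue variant antibodies injected as analyte over CD3ε homodimer immobilized by amine coupling, run at 25 °C in HBS-EP+ buffer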
# Procedure: An appropriate amount of CD3ε homodimer protein was immobilized onto Sensor chip CM4 (GE Healthcare Japan Corp.) by the amine coupling method. Then, the antibody having an appropriate concentration was injected thereto as an analyte and allowed to interact with the CD3ε homodimer protein on the sensor chip. Then, the sensor chip was regenerated by the injection of 10 mmol/L glycine-HCl (pH 1.5). The assay was conducted at 25° C., and HBS-EP+ (GE Healthcare Japan Corp.) was used as a running buffer. […] Each parameter was calculated using Biacore T200 Evaluation Software (GE Healthcare Japan Corp.).
# T1 sequence (P07766 23-126 limits assumed): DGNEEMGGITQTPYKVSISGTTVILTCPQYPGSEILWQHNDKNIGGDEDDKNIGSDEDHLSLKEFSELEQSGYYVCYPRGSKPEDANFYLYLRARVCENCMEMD
row,ratio of amounts bound Z=Y/X (altered form / CE115HA000),Binder
1,0.2,"CE115HA000 H35D one-arm antibody (antibody, human IgG1, kappa, L234A L235A, N297A, name in Kabat numbering) heavy: QVQLVESGGGVVQPGRSLRLSCAASGFTFSNAWMDWVRQAPGKGLEWVAQIKAKSNNYATYYAESVKGRFTISRDDSKNSLYLQMNSLKTEDTAVYYCRYVHYGAYYGVDAWGQGTTVTVSSASTKGPSVFPLAPSSKSTSGGTAALGCLVKDYFPEPVTVSWNSGALTSGVHTFPAVLQSSGLYSLSSVVTVPSSSLGTQTYICNVNHKPSNTKVDKKVEPKSCDKTHTCPPCPAPEAAGGPSVFLFPPKPKDTLMISRTPEVTCVVVDVSHEDPEVKFNWYVDGVEVHNAKTKPREEQYASTYRVVSVLTVLHQDWLNGKEYKCKVSNKALPAPIEKTISKAKGQPREPQVYTLPPSRCELTKNQVSLSCAVKGFYPSDIAVEWESNGQPENNYKTTPPVLDSDGSFFLVSKLTVDKSRWQQGNVFSCSVMHEALHNHYTQKSLSLSPDYKDDDDK EPKSSDKTHTCPPCPAPELLGGPSVFLFPPKPKDTLMISRTPEVTCVVVDVSHEDPEVKFNWYVDGVEVHNAKTKPREEQYNSTYRVVSVLTVLHQDWLNGKEYKCKVSNKALPAPIEKTISKAKGQPREPQVCTLPPSRDELTKNQVSLWCLVKGFYPSDIAVEWESNGQPENNYKTTPPVLDSDGSFFLYSKLTVDKSRWQQGNVFSCSVMHEALHNRYTQKSLSLSP light: DIVMTQSPLSLPVTPGEPASISCRSSQSLVHSNRNTYLHWYQQKPGQAPRLLIYKVSNRFSGVPDRFSGSGSGTDFTLKISRVEAEDVGVYYCGQGTQVPYTFGQGTKLEIKRTVAAPSVFIFPPSDEQLKSGTASVVCLLNNFYPREAKVQWKVDNALQSGNSQESVTEQDSKDSTYSLSSTLTLSKADYEKHKVYACEVTHQGLSSPVTKSFNRGEC"
2,0.19,"CE115HA000 H35E one-arm antibody (antibody, human IgG1, kappa, L234A L235A, N297A, name in Kabat numbering) heavy: QVQLVESGGGVVQPGRSLRLSCAASGFTFSNAWMEWVRQAPGKGLEWVAQIKAKSNNYATYYAESVKGRFTISRDDSKNSLYLQMNSLKTEDTAVYYCRYVHYGAYYGVDAWGQGTTVTVSSASTKGPSVFPLAPSSKSTSGGTAALGCLVKDYFPEPVTVSWNSGALTSGVHTFPAVLQSSGLYSLSSVVTVPSSSLGTQTYICNVNHKPSNTKVDKKVEPKSCDKTHTCPPCPAPEAAGGPSVFLFPPKPKDTLMISRTPEVTCVVVDVSHEDPEVKFNWYVDGVEVHNAKTKPREEQYASTYRVVSVLTVLHQDWLNGKEYKCKVSNKALPAPIEKTISKAKGQPREPQVYTLPPSRCELTKNQVSLSCAVKGFYPSDIAVEWESNGQPENNYKTTPPVLDSDGSFFLVSKLTVDKSRWQQGNVFSCSVMHEALHNHYTQKSLSLSPDYKDDDDK EPKSSDKTHTCPPCPAPELLGGPSVFLFPPKPKDTLMISRTPEVTCVVVDVSHEDPEVKFNWYVDGVEVHNAKTKPREEQYNSTYRVVSVLTVLHQDWLNGKEYKCKVSNKALPAPIEKTISKAKGQPREPQVCTLPPSRDELTKNQVSLWCLVKGFYPSDIAVEWESNGQPENNYKTTPPVLDSDGSFFLYSKLTVDKSRWQQGNVFSCSVMHEALHNRYTQKSLSLSP light: DIVMTQSPLSLPVTPGEPASISCRSSQSLVHSNRNTYLHWYQQKPGQAPRLLIYKVSNRFSGVPDRFSGSGSGTDFTLKISRVEAEDVGVYYCGQGTQVPYTFGQGTKLEIKRTVAAPSVFIFPPSDEQLKSGTASVVCLLNNFYPREAKVQWKVDNALQSGNSQESVTEQDSKDSTYSLSSTLTLSKADYEKHKVYACEVTHQGLSSPVTKSFNRGEC"
